Measurements from PMC9270183 (The Journal of Experimental Medicine, 2022).

Assays:
[1] = target: T1, SARS-CoV-2 Wuhan-Hu-1 RBD (SARS-CoV-2 Wuhan-Hu-1, UniProt P0DTC2); assay: BLI; details: both partners purified
[2] = target: T1, SARS-CoV-2 Wuhan-Hu-1 RBD; assay: ELISA; details: both partners purified

Row | Binder | binding result [1] | binding result [2]
1 | V052 (antibody, V domains shown, IgG; donor BRA15) VH: EVQLVESGGGLVQPGGSLRLSCAASGFTVSSKYMNWVRQAPGKGLEWVSVIYIGGSTDYADSVKGRFTISRDNSKNTLYLQMNSLRVEDTAVYYCARDGWDYELVFWGQGTLVTVSS VL: DIQMTQSPSSLSASVGDRVTITCRASQGIRNDLGWYQQKPGKAPKRLIYAASSLQSGVPSRFSGSGSGTEFTLTISSLQPEDFATYYCLQHNSYPRWTFGQGTKVEIK | no binding (tested: 100 µg/ml RBD) | 
2 | V021 (antibody, V domains shown, IgG; donor BRA13) VH: QVQLQESGPGLVKPSQTLSLTCTVSGGSISSGSYYWSWIRQPVGKGLEWIGRIYTSGSTNYNPSLKSRVTISVDTSKNQFSLELSSVTAADRAVYYCARESSPASIPVRGVIWWFDPWGQGTLVTVSS VL: not shown |  | no binding
3 | V065 (antibody, V domains shown, IgG; donor BRA15) VH: QVQLVQSGAEVKKPGASVKVSCKASGYTFTSYGISWVRQAPGQGLEWMGWINTDNGNTKNAQKVQGRVTMTTDTSTSTAYMELRSLRSDDTAVYYCARGGTVGAPPIEYWGQGTLVTVSS VL: QSALTQPASVSGSPGQSITFSCTGTSSDVGGYNYVSWYQQYPGKAPKLLIYDVTNRPSGVSDRFSGSKSGNTASLTIFGLQAEDEADYYCSSFTSSNTRVFGTGTKVTVL | no binding (tested: 100 µg/ml RBD) | 
